{"source": "patent US20040087537A1", "key": {"[1]": {"target": "delta-LNGFR/F12Nef fusion protein, product of the NF vector (human LNGFR (NH2 moiety) fused to HIV-1 F12Nef (COOH moiety))", "experiment": "FACS on CEMss NF cells, control labeling"}, "[2]": {"target": "low affinity human Nerve Growth Factor receptor truncated in its intracytoplasmic domain (delta-LNGFR), product of the HN vector (human)", "sequence (chain, as listed by the source mutant limits assumed)": "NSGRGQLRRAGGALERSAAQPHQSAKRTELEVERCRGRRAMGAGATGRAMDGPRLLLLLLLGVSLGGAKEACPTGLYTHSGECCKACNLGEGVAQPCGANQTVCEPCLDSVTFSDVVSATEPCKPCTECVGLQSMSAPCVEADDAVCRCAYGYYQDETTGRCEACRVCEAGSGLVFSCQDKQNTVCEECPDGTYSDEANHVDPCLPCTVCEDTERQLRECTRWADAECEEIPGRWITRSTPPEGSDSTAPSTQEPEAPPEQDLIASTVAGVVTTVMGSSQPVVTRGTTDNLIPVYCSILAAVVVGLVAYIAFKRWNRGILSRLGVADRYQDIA", "experiment": "FACS on CEMss HN cells, control labeling"}}}
{"substance": "species and isotype matched IgG (antibody)", "values": [{"measurement": "MFI", "setting": "[1]", "value": "1 to 1.5"}, {"measurement": "MFI", "setting": "[2]", "value": "1 to 1.5"}]}
